Drawing on paper PMC10397247, this text covers interaction score for four molecules.

One assay addresses T1, 4H376-AA.
T1 chain: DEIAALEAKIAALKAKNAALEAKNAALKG
The assay is described as follows: two-hybrid library CCmax.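 Further: natural log of median RNA to DNA barcode read ratio; higher means stronger binding.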 The following applies: mean of both orientations.

The target in another assay is T2, 4H2219-AA.
T2 chain: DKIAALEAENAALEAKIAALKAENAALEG
Nature of the assay: two-hybrid library CCmax.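 Further: natural log of median RNA to DNA barcode read ratio; higher means stronger binding.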 The note with it: mean of both orientations.

The next assay concerns the target T3, 4H2504-AA.
T3 chain: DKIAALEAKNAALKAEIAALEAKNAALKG
Nature of the assay: two-hybrid library CCmax.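 Further: natural log of median RNA to DNA barcode read ratio; higher means stronger binding.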

A further assay addresses T4, 4H249-AA.
T4 chain: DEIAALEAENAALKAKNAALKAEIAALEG
The assay is described as follows: two-hybrid library CCmax.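 Further: natural log of median RNA to DNA barcode read ratio; higher means stronger binding.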 The following applies: mean of both orientations.

The next assay has as its target T5, 4H2611-AA.
T5 chain: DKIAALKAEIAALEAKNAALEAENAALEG
The assay is described as follows: two-hybrid library CCmax. The note with it: mean of both orientations.

The target in the next assay is T6, 4H347-AA.
T6 chain: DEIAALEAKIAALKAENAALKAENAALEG
The assay is described as follows: two-hybrid library CCmax. The following applies: mean of both orientations.

The target of another assay is T7, 4H963-AA.
T7 chain: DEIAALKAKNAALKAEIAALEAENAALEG
Nature of the assay: two-hybrid library CCmax. The following applies: mean of both orientations.

The target of the next assay is T8, 4H2774-AA.
T8 chain: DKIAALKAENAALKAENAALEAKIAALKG
Nature of the assay: two-hybrid library CCmax. The following applies: mean of both orientations.

A further assay has as its target T9, 4H406-AA.
T9 chain: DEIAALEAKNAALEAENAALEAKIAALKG
Nature of the assay: two-hybrid library CCmax. The note with it: mean of both orientations.

The next assay deals with T10, 4H3001-AA.
T10 chain: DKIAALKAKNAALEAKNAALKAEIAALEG
The assay is described as follows: two-hybrid library CCmax. The note with it: mean of both orientations.

For the next assay, the target named is T11, 4H1738-AA.
T11 chain: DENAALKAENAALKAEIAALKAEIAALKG
The assay is described as follows: two-hybrid library CCmax.

In a further assay the target is T12, 4H3381-AA.
T12 chain: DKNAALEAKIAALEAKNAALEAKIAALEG
Nature of the assay: two-hybrid library CCmax. The note with it: mean of both orientations.

In the next assay the target is T13, 4H3493-AA.
T13 chain: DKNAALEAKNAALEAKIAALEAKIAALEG
The assay is described as follows: two-hybrid library CCmax. The following applies: mean of both orientations.

The target in a further assay is T14, 4H688-AA.
T14 chain: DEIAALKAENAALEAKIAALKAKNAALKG
The assay is described as follows: two-hybrid library CCmax. The note with it: mean of both orientations.

The target in the next assay is T15, 4H2592-AA.
T15 chain: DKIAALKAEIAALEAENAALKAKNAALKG
The assay is described as follows: two-hybrid library CCmax. The note with it: mean of both orientations.

The next assay concerns the target T16, 4H3340-AA.
T16 chain: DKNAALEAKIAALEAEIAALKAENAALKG
The assay is described as follows: two-hybrid library CCmax. The following applies: mean of both orientations.

The target in another assay is T17, 4H3843-bN.
T17 chain: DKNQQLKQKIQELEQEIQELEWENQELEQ
Nature of the assay: two-hybrid library CCNG1.

The target in a further assay is T18, 4H953-bN.
T18 chain: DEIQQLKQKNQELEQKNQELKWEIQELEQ
Nature of the assay: two-hybrid library CCNG1.

In the next assay the target is T19, 4H2610-bN.
T19 chain: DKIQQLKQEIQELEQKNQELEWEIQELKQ
Nature of the assay: two-hybrid library CCNG1.

The target in a further assay is T20, 4H331-bN.
T20 chain: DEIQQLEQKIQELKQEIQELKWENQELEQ
The assay is described as follows: two-hybrid library CCNG1.

The target in a further assay is T21, 4H918-bN.
T21 chain: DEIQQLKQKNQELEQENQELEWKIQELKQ
Nature of the assay: two-hybrid library CCNG1.

The next assay concerns the target T22, 4H3782-bN.
T22 chain: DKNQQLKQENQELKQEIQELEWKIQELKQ
The assay is described as follows: two-hybrid library CCNG1.

For the next assay, the target named is T23, 4H2162-bA.
T23 chain: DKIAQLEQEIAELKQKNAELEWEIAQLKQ
The assay is described as follows: two-hybrid library CCNG1.

The target of another assay is T24, 4H1369-bN.
T24 chain: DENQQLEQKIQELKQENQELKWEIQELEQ
The assay is described as follows: two-hybrid library CCNG1.

The target of another assay is T25, 4H370-bN.
T25 chain: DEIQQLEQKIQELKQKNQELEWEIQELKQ
The assay is described as follows: two-hybrid library CCNG1.

The target in a further assay is T26, 4H797-bN.
T26 chain: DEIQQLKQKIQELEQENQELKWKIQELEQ
Nature of the assay: two-hybrid library CCNG1.

The target in another assay is T27, 4H3606-bN.
T27 chain: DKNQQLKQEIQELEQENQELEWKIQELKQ
Nature of the assay: two-hybrid library CCNG1.

Another assay deals with T28, 4H462-bN.
T28 chain: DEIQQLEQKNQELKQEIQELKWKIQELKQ
Nature of the assay: two-hybrid library CCNG1.

The target in another assay is T29, 4H2667-bN.
T29 chain: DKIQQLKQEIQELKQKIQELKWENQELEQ
The assay is described as follows: two-hybrid library CCNG1.

A further assay concerns the target T30, 4H2576-bN.
T30 chain: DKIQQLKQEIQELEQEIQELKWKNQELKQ
The assay is described as follows: two-hybrid library CCNG1.

Another assay has as its target T31, 4H3189-bN.
T31 chain: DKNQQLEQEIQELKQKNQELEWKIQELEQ
The assay is described as follows: two-hybrid library CCNG1.

The next assay addresses T32, 4H883-bN.
T32 chain: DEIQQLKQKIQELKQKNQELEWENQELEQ
Nature of the assay: two-hybrid library CCNG1.

The target in the next assay is T33, 4H568-bN.
T33 chain: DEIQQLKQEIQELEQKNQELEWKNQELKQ
Nature of the assay: two-hybrid library CCNG1.

The target in a further assay is T34, 4H607-bN.
T34 chain: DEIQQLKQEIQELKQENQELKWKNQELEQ
Nature of the assay: two-hybrid library CCNG1.

A further assay concerns the target T35, 4H967-bN.
T35 chain: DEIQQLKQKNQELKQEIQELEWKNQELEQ
The assay is described as follows: two-hybrid library CCNG1.

The next assay addresses T36, 4H4001-bN.
T36 chain: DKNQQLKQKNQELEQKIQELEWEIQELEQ
Nature of the assay: two-hybrid library CCNG1.

The next assay has as its target T37, 4H1845-bN.
T37 chain: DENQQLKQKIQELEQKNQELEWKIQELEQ
The assay is described as follows: two-hybrid library CCNG1.

A further assay addresses T38, 4H687-bN.
T38 chain: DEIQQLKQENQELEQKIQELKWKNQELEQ
Nature of the assay: two-hybrid library CCNG1.

Another assay has as its target T39, 4H2697-bN.
T39 chain: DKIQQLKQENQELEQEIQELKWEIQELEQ
Nature of the assay: two-hybrid library CCNG1.

In the next assay the target is T40, 4H72-bN.
T40 chain: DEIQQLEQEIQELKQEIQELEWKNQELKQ
Nature of the assay: two-hybrid library CCNG1.

In a further assay the target is T41, 4H1446-bN.
T41 chain: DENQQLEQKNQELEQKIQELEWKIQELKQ
The assay is described as follows: two-hybrid library CCNG1.

The next assay deals with T42, 4H918-bH.
T42 chain: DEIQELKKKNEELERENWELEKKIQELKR
The assay is described as follows: two-hybrid library CCNG1.

For a further assay, the target named is T43, 4H754-bH.
T43 chain: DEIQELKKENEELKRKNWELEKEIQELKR
The assay is described as follows: two-hybrid library CCNG1.

In the next assay the target is T44, 4H72-bH.
T44 chain: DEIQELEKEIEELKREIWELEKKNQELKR
The assay is described as follows: two-hybrid library CCNG1.

The next assay addresses T45, 4H908-bH.
T45 chain: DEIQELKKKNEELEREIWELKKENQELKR
Nature of the assay: two-hybrid library CCNG1.

The next assay deals with T46, 4H953-bH.
T46 chain: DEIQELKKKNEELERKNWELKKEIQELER
Nature of the assay: two-hybrid library CCNG1.

The target in another assay is T47, O10-bH.
T47 chain: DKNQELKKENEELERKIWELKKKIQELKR
Nature of the assay: two-hybrid library CCNG1.

In a further assay the target is T48, 4H797-bH.
T48 chain: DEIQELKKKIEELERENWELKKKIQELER
Nature of the assay: two-hybrid library CCNG1.

The target in a further assay is T49, 4H967-bH.
T49 chain: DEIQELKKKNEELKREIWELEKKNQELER
The assay is described as follows: two-hybrid library CCNG1.

Another assay addresses T50, 4H717-bH.
T50 chain: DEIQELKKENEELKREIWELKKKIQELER
The assay is described as follows: two-hybrid library CCNG1.

In the next assay the target is T51, 4H687-bH.
T51 chain: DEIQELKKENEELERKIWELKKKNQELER
Nature of the assay: two-hybrid library CCNG1.

The next assay deals with T52, 4H883-bH.
T52 chain: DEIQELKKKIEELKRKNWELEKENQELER
Nature of the assay: two-hybrid library CCNG1.

A further assay addresses T53, 4H3601-bN.
T53 chain: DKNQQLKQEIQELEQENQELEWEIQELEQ
The assay is described as follows: two-hybrid library CCNG1.

Another assay deals with T54, 4H3907-bN.
T54 chain: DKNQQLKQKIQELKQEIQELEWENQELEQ
The assay is described as follows: two-hybrid library CCNG1.

A further assay deals with T55, 4H2162-bN.
T55 chain: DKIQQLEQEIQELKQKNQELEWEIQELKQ
Nature of the assay: two-hybrid library CCNG1.

For a further assay, the target named is T56, 4H3592-bN.
T56 chain: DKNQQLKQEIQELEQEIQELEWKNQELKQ
Nature of the assay: two-hybrid library CCNG1.

For a further assay, the target named is T57, 4H1406-bN.
T57 chain: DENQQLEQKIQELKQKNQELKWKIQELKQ
The assay is described as follows: two-hybrid library CCNG1.

The next assay has as its target T58, 4H4038-bN.
T58 chain: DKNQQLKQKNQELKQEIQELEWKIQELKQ
The assay is described as follows: two-hybrid library CCNG1.

The target of a further assay is T59, 4H1387-bN.
T59 chain: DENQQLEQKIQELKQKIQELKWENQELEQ
Nature of the assay: two-hybrid library CCNG1.

Another assay concerns the target T60, 4H454-bN.
T60 chain: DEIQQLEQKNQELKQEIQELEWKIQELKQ
Nature of the assay: two-hybrid library CCNG1.

As to DENAALKAENAALKAEIAALKAEIAALKG [4H1738-AA], the interaction score is -1.75 in the assay with 4H376-AA; -1.76 with 4H2219-AA; -1.96 with 4H2504-AA; -1.2 with 4H249-AA; -1.52 in the assay with 4H2611-AA; -1.67 with 4H347-AA. Further, the interaction score in the assay with 4H963-AA is -1.8; in the assay with 4H2774-AA, -1.15; with 4H406-AA it was -1.49; with 4H3001-AA, -1.39; with 4H1738-AA, 1.65; in the assay with 4H3381-AA, -1.45. In addition, the interaction score in the assay with 4H3493-AA was -1.11; in the assay with 4H688-AA it was -1.24; in the assay with 4H2592-AA, -1.14; in the assay with 4H3340-AA, -1.31.

DENQQLEQKIQELKQENQELKWEIQELEQ [4H1369-bN]: the interaction score was -1.02 with 4H3843-bN; -1.2 with 4H953-bN; -0.97 in the assay with 4H2610-bN; -1.16 with 4H331-bN; -0.868 with 4H918-bN; -1.06 with 4H3782-bN. In addition, the interaction score in the assay with 4H2162-bA was -0.463; with 4H1369-bN, -0.802; with 4H370-bN, -1.79; in the assay with 4H797-bN, -1.65; with 4H3606-bN it was 0.215; with 4H462-bN it was -1.07. In addition, the interaction score in the assay with 4H2667-bN is -1.23; with 4H2576-bN it was -0.023; with 4H3189-bN, -0.697; in the assay with 4H883-bN, -1.19; with 4H568-bN, -1.26; with 4H607-bN, -0.655. The interaction score with 4H967-bN is -0.997; with 4H4001-bN, -0.815; with 4H1845-bN, -1.4; in the assay with 4H687-bN, -1.7; with 4H2697-bN, -0.852; with 4H72-bN it was -1.26. Besides, the interaction score with 4H1446-bN is -2.34.

Consider DEIQELKKENEELERKIWELKKKNQELER [4H687-bH], for which the interaction score with 4H918-bH is -0.146; with 4H754-bH it was -0.221; with 4H72-bH, 0.182; with 4H908-bH it was -0.414; with 4H953-bH, -0.5; in the assay with O10-bH it was -0.602. For the same molecule, the interaction score is -0.897 with 4H797-bH; 1.63 in the assay with 4H967-bH; -0.0944 in the assay with 4H717-bH; 0 in the assay with 4H687-bH; 0.0397 with 4H883-bH.

Turning to DENQQLEQKIQELKQKIQELKWENQELEQ [4H1387-bN], the interaction score in the assay with 4H3601-bN was -0.293; with 4H3907-bN it was 1.31; with 4H2162-bN it was -2.27; in the assay with 4H3592-bN, 0.94; with 4H1406-bN, -0.625; with 4H4038-bN, 0.464. Moreover, the results for the interaction score in the assay with 4H1387-bN and with 4H454-bN were -1.9 and -0.28, respectively.
